Source: patent US20240150440A1 (LUMEN BIOSCIENCE, published 2024)
Values joined by “and” are separate entries in the source; they are usually repeats but may differ in a detail not shown here. Equal values may be shown once.

What was measured:
[1] = molecular target: T1, SARS-CoV-2 spike protein on pseudotyped lentivirus (Wuhan Reference Pseudovirus) (SARS-CoV-2, UniProt P0DTC2 14-1273); assay: cell-based or functional assay
[2] = molecular target: SARS-CoV-2 Gamma Variant spike protein on pseudotyped lentivirus (SARS-CoV-2 Gamma variant); assay: cell-based or functional assay
[3] = molecular target: T2, SARS-CoV-2 Alpha Variant RBD (SARS-CoV-2 Alpha variant); assay: ELISA, RBD coated
T2 construct: domain: RBD; coated on ELISA plates

[4] = molecular target: T3, SARS-CoV-2 Gamma Variant RBD (SARS-CoV-2 Gamma variant); assay: ELISA, RBD coated
T3 construct: domain: RBD; coated on ELISA plates

[5] = molecular target: T4, SARS-CoV-2 Beta Variant RBD (SARS-CoV-2 Beta variant); assay: ELISA, RBD coated
T4 construct: domain: RBD; coated on ELISA plates

[6] = molecular target: T1, SARS-CoV-2 spike protein on pseudotyped …; assay: cell-based or functional assay; remark: listed apart in the source
[7] = molecular target: T1, SARS-CoV-2 spike protein on pseudotyped …; assay: cell-based or functional assay; remark: listed apart in the source
[8] = molecular target: T5, SARS-CoV-2 Delta Variant RBD (SARS-CoV-2 Delta variant); assay: ELISA, RBD coated
T5 construct: domain: RBD; coated on ELISA plates

Row | Binder | infectivity % under 10 ug/mL VHH treatment [1] | Pseudovirus neutralization IC50 [2] | EC50 [3] | EC50 [4] | EC50 [5] | Pseudovirus neutralization IC50 [6] | Pseudovirus inhibition IC50 [Cont. 1] [7] | EC50 [8]
1 | PP1106 MBP-5HVZ-PAPA-RN-21-H6 (VHH, Form: Dimer) VHH: QVQLVESGGGLVQPGGSLRLSCAASGLQTSDNAMHWFRQAPGKNRELVAGLTSGTSRNYGDSVKGRFTISRDNAKNTVYLQMNSLKPEDTAVYYCAAFPDVGDASSIGFVYWGQGTQVTVSS | 76.6% | 63.4 nM | 2.05 nM | 7.84 nM | 3.17 nM |  |  | 
2 | PP1144 MBP-5HVZ-PAPA-R2c-F6-H6 (VHH, Form: Dimer) VHH: QVQLVESGGGLVQPGGSLRLSCAASGRILAANIVHWYRQAPGKEREGVAGITTGGSNYYSDSVKGRFTISRDNAKNTVYLQMNSLKPEDTAVYYCNALGLGSASGSYESWGQGTQVTVSS | 9.18% |  |  |  |  | 11.9 nM | 2.75 nM | 
3 | PP1145 MBP-5HVZ-PAPA-R2d-A6-H6 (VHH, Form: Dimer) VHH: QVQLVESGGGLVQPGGSLRLSCAASGSGASIGAMHWFRQAPGKGREWVASITSAGNTYYGDSVKGRFTISRDNAKNTVYLQMNSLKPEDTAVYYCNALAGANYESQWEEYNYWGQGTQVTVSS | 65.2% |  | 1.94 nM | 5.49 nM | 30.9 nM | 146 nM |  | 89 nM
4 | PP1153 MBP-5HVZ-PAPA-R5d-D4-H6 (VHH, Form: Dimer) VHH: QVQLVESGGGLVQPGGSLRLSCAASGSDFTINAMHWFRQAPGKQREFVATITSTSSTAYRDSVKGRFTISRDNAKNTVYLQMNSLKPEDTAVYYCAAFAVRDADTAGWTARDYWGQGTQVTVSS | 81.7% | 62.9 nM | 0.91 nM |  |  |  |  | 223 nM
5 | PP1154 MBP-5HVZ-PAPA-R5d-G1-H6 (VHH, Form: Dimer) VHH: QVQLVESGGGLVQPGGSLRLSCAASGSIFGINDVHWFRQAPGKEREFVATITNGLSARYKDSVKGRFTISRDNAKNTVYLQMNSLKPEDTAVYYCAAQVYITTYELYDYWGQGTQVTVSS | 53.2% |  | 2.37 nM | 15.8 nM | 24.7 nM | 272 nM |  | 221 nM
6 | PP1132 MBP-4B0F-PAPA-R2c-F6-H6 (VHH, Form: Heptamer) VHH: QVQLVESGGGLVQPGGSLRLSCAASGRILAANIVHWYRQAPGKEREGVAGITTGGSNYYSDSVKGRFTISRDNAKNTVYLQMNSLKPEDTAVYYCNALGLGSASGSYESWGQGTQVTVSS | 2.65% |  |  |  |  | 4.14 nM | 5.66 nM | 
7 | PP1133 MBP-4B0F-PAPA-R2d-A6-H6 (VHH, Form: Heptamer) VHH: QVQLVESGGGLVQPGGSLRLSCAASGSGASIGAMHWFRQAPGKGREWVASITSAGNTYYGDSVKGRFTISRDNAKNTVYLQMNSLKPEDTAVYYCNALAGANYESQWEEYNYWGQGTQVTVSS | 48.1% |  |  |  |  | 186 nM | 180 nM | 
8 | PP1134 MBP-4B0F-PAPA-R2d-D3-H6 (VHH, Form: Heptamer) VHH: QVQLVESGGGLVQPGGSLRLSCAASGHIFSINNAAWVRQAPGKSREGVATIHSGGGTYYSDSVKGRFTISRDNAKNTVYLQMNSLKPEDTAVYYCNAEVSTGAGSRGRVSDVYWGQGTQVTVSS | 10.9% |  |  |  |  | 3.97 nM | 5.99 nM | 
9 | PP1156 MPB-scTRP-PAPA-R2c-F6-H6 (VHH, Form: Trimer) VHH: QVQLVESGGGLVQPGGSLRLSCAASGRILAANIVHWYRQAPGKEREGVAGITTGGSNYYSDSVKGRFTISRDNAKNTVYLQMNSLKPEDTAVYYCNALGLGSASGSYESWGQGTQVTVSS | 18.1% |  |  |  |  | 36.8 nM | 63.8 nM | 
10 | PP1157 MPB-scTRP-PAPA-R2d-A6-H6 (VHH, Form: Trimer) VHH: QVQLVESGGGLVQPGGSLRLSCAASGSGASIGAMHWFRQAPGKGREWVASITSAGNTYYGDSVKGRFTISRDNAKNTVYLQMNSLKPEDTAVYYCNALAGANYESQWEEYNYWGQGTQVTVSS | 32.9% |  |  |  |  | 18.9 nM and 19.8 nM | 54.4 nM | 
11 | PP1158 MPB-scTRP-PAPA-R2d-D3-H6 (VHH, Form: Trimer) VHH: QVQLVESGGGLVQPGGSLRLSCAASGHIFSINNAAWVRQAPGKSREGVATIHSGGGTYYSDSVKGRFTISRDNAKNTVYLQMNSLKPEDTAVYYCNAEVSTGAGSRGRVSDVYWGQGTQVTVSS | 28.8% |  |  |  |  | 27.4 nM | 123 nM | 
12 | PP1181 R2d-D3-PP7-H6 (VHH) VHH: QVQLVESGGGLVQPGGSLRLSCAASGHIFSINNAAWVRQAPGKSREGVATIHSGGGTYYSDSVKGRFTISRDNAKNTVYLQMNSLKPEDTAVYYCNAEVSTGAGSRGRVSDVYWGQGTQVTVSS | 1.57% |  |  |  |  | 6.95 nM | 5.61 nM | 
13 | PP908 MBP-5HVZ-S2a-C4-H6 (VHH, Form: Dimer) VHH: QVQLVESGGGLVQPGGSLRLSCAASGFSESINATAWFRQAPGKQREGVAGLDGGGSDYYSDSVKGRFTISRDNAKNTVYLQMNSLKPEDTAVYYCAAQLTSSFRGYDFTPSNYDYWGQGTQVTVSS | 47.5% | 63.1 nM | 1.74 nM | 3.75 nM | 7.42 nM | 1620 nM |  | 2.15 nM
14 | PP934 MBP-5HVZ-S3a-H2-H6 (VHH, Form: Dimer) VHH: QVQLVESGGGLVQPGGSLRLSCAASGAAFSKNALHWFRQAPGKGREWVASITSGSGTQYMDSVKGRFTISRDNAKNTVYLQMNSLKPEDTAVYYCAALAYSGGYDYWGQGTQVTVSS |  | 46300 nM | 1.56 nM | 4.78 nM | 13.5 nM |  |  | 
15 | PP1102 MBP-5HVZ-PAPA-RN-17-H6 (VHH, Form: Dimer) VHH: QVQLVESGGGLVQPGGSLRLSCAASGSMYSRAVMHWFRQAPGKEREGVASIGRTGDSYYADSVKGRFTISRDNAKNTVYLQMNSLKPEDTAVYYCAADNLDVVYGNRYWGQGTQVTVSS | 40.9% | 21.5 nM | 1.55 nM | 1.26 nM | 2 nM | ~5110 nM |  | 
16 | PP1104 MBP-5HVZ-PAPA-RN-19-H6 (VHH, Form: Dimer) VHH: QVQLVESGGGLVQPGGSLRLSCAASGIDDSIGAMHWFRQAPGKGREFVAALSGTGTTSYADSVKGRFTISRDNAKNTVYLQMNSLKPEDTAVYYCAAAFPAGGDYWGQGTQVTVSS | 73.8% |  | 1.09 nM | 29.5 nM | 44.9 nM |  |  | 295 nM
17 | PP1105 MBP-5HVZ-PAPA-RN-20-H6 (VHH, Form: Dimer) VHH: QVQLVESGGGLVQPGGSLRLSCAASGNYFEINKMHWFRQAPGKQREFVATIGSGGSTAYADSVKGRFTISRDNAKNTVYLQMNSLKPEDTAVYYCNALIYLADRRDGYYSYDYWGQGTQVTVSS | 79.8% |  | 1.41 nM | 15.4 nM | 26.6 nM |  |  | 36.6 nM
